Source: publication PMC8108093 (Cell, 2018)

Biological target: His6-REV7_(R124A), recombinant (human, UniProt Q9UI95 1-211, R124A)
Experiment: ITC

Sequence of His6-REV7_(R124A), recombinant (Q9UI95 whole entry R124A): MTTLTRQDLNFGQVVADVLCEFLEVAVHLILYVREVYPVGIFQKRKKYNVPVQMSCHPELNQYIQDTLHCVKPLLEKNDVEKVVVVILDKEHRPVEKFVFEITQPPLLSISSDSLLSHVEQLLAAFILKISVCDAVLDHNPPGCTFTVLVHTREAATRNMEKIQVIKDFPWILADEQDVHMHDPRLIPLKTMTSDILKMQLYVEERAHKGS

Kd: 15.8 nM
B1: RINN1_(28–83), recombinant (domain or fragment, human, UniProt Q6ZNX1 28-83, looked up)
chain: QDFPTRPLSRFIPWFPYDGSKLPLRPKRSPPVISEEAAEDVKQYLTISEHDAKSHS
